The results in this text go back to patent US20240002497A1 (Merck Sharp & Dohme, published 2024).

The target in assay [1] is T1, huNav157chim12 + β1-β2-β3 (human, UniProt Q15858 1-1988; A5A6L6 19-218; O60939 30-215; Q2KI11 23-215).
T1 construct: DI S5-S6 from Nav1.5α, rest Nav1.7α; also called huNav157 chimera 12
Nature of the assay: FACS, transiently transfected HEK293T cells. The method, then:
(§1) Binding of the ISVDs to cell-expressed Nav1.7α was detected via murine anti-Flag (Sigma, catalog #F1804). Briefly, cells were resuspended in FACS buffer (PBS, 10% FBS, NaN₃) and transferred to a 96-well V-bottom plate at 1×10^5 cells/well. Purified FLAG3-tagged ISVD was diluted in FACS buffer and added to the cells for 30 minutes at 4° C. […] Prior to the read-out, the samples were resuspended in 1 μg/mL propidium iodide (Sigma, catalog #P4170) to exclude dead cells. Between each step, the cells were centrifuged for 5 minutes at 200 grams and washed with 100 μL/well FACS buffer.
(§2) FACS binding studies (as described above) were performed on HEK293T cells transiently transfected with expression vectors encoding a huNav1.7α or rhNav1.7α fused at the C-terminus via a P2A viral peptide linker to a single polypeptide encoding sodium channel beta subunits Navβ1, Navβ2, and Navβ3 in tandem (β1-β2-β3; SEQ ID NO:21). Similarly, HEK293T cells transiently transfected with expression vectors encoding chimeric variants of huNav1.7α in which individual domains are replaced by their huNav1.5α counterparts (chimeras 1 to 4 in FIG. 16) or with chimeric variants of huNav1.5 in which individual domains are replaced by their huNav1.7α counterparts (chimeras 5 to 8 in FIG. 16) fused at the C-terminus via a P2A viral peptide linker to β1-β2-β3 as above. See Table 7 for description of the expression vectors encoding the chimeras, Table 21 and FIG. 16).
(In general: Flow cytometry measures light scatter and fluorescence of single cells or particles in a stream.)

The target of another assay is T2, huNav157chim6 + β1-β2-β3 (human).
T2 construct: DI, DII, DIV from Nav1.5α, DIII from Nav1.7α; also called huNav157 chimera 6
The assay can be described thus: FACS, transiently transfected HEK293T cells. The method, then: as §1, §2

In another assay the target is T3, huNav157chim4 + β1-β2-β3 (human, UniProt Q15858 44-1988; A5A6L6 19-218; O60939 30-215; Q2KI11 23-215).
T3 construct: DII, DIII, DIV from Nav1.7α, DI from Nav1.5α; also called huNav157 chimera 4
The assay can be described thus: FACS, transiently transfected HEK293T cells. The method, then:
as §1, §2

Another assay addresses T4, huNav157chim7 + β1-β2-β3 (human).
T4 construct: DI, DIII, DIV from Nav1.5α, DII from Nav1.7α; also called huNav157 chimera 7
The assay can be described thus: FACS, transiently transfected HEK293T cells. The method, then: as §1, §2

The next assay has as its target T5, huNav157chim5 + β1-β2-β3 (human).
T5 construct: DI, DII, DIII from Nav1.5α, DIV from Nav1.7α; also called huNav157 chimera 5
Nature of the assay: FACS, transiently transfected HEK293T cells. The method, then:
as §1, §2

Assay [2] deals with T6, huNav1.7α + β1-β2-β3 (human, UniProt Q15858 1-1988; A5A6L6 19-218; O60939 30-215; Q2KI11 23-215).
T6 construct: Cell line (CHO FlpIn, HEK FlpIn, transient HEK293T) is named under assay; also called huNav1.7-beta1-beta2-beta3; human Nav1.7α with Navβ1, Navβ2 and Navβ3
Nature of the assay: competition FACS, HEK FlpIn cells, vs EC30 of CMYC3-F0103265B04. The method, then: Competition FACS assays were performed with CMYC3-tagged ISVD F0103265B04 or F0103275B05(N93R) affinity maturation variant on a HEK FlpIn huNav1.7α+β1−β2−β3 transgenic cell line. Briefly, cells were resuspended in FACS buffer (PBS, 2% FBS, 0.05% NaN₃) and 1×10⁵ cells/well were transferred to 96-well V-bottom plates. Cells were subsequently resuspended in a 100 μL mixture of purified ISVD (dilution series) and CMYC3-tagged ISVD F0103265B04 (at a concentration equivalent to EC30) followed by incubation for 1.5 hours at 4° C. […] Between each step, the cells were centrifuged for 5 minutes at 200 g and washed with 100 μL/well FACS buffer. Prior to the read-out, the samples were resuspended in 5 nM TOPRO3 (Molecular probes, catalog #T3605) to exclude dead cells. F0103262CO2, F0103262B06, F0103265A11, F0103265B04, F0103275B05, F0103362B08, and F0103387G04 all compete with F0103265B04 for binding to huNav1.7α, in contrast to an irrelevant control ISVD (IRR) (see Table 21 and FIG. 15A, FIG. 15B, FIG. 15C, and FIG. 15D).

The target in assay [3] is T7, huNav1.7α(V331M) + β1-β2-β3 (human).
T7 construct: polyprotein as encoded; the entry already carries V331M; also called huNav1.7(V331M)-beta1-beta2-beta3
Nature of the assay: binding FACS, CHO FlpIn cells. The method, then: as §1
(§3) Based on the huNav1.7α model (as described above) the following huNav1.7α-rhNav1.7α polymorphisms can be allocated to the extracellular part of DI: N146S, F276V, R277Q, E281V and V331M. The first of the residues is in DI S1-S2 whereas the latter four residues belong to DI S5-S6. FACS binding studies (as described above) were performed to stable CHO FlpIn cell lines expressing different variants of huNav1.7+β1−β2−β3 each including one of the four possible extracellular huNav1.7α-rhNav1.7α polymorphisms in the DI S5-S6 region: F276V, R277Q, E281V and V331M (Table 23 and FIGS. 22A-22F). Individual polymorphisms were each sufficient to abolish the binding of F0103265B04, F0103362B08, F010301080, and F0103262B06 to huNav1.7α, recapitulating the absence of binding on rhNav1.7α. F0103262CO2, F0103275B05 and F0103387G05 are more subtly affected in terms of EC50 or Bmax by some of the polymorphisms. None of the individual DI S5-S6 polymorphisms by themselves appear to have an impact on the binding of the two rhNav1.7α cross-reactive ISVDs F0103387G04 and F0103464B09. In addition, no effect on binding of the two ISVDs was observed (data not shown) for the three extracellular DIV VSD huNav1.7α-rhNav1.7α polymorphisms Q1530P, H1531Y and E1534D (FIG. 22G).

Assay [4] addresses T6, huNav1.7α + β1-β2-β3. The assay can be described thus: binding FACS, CHO FlpIn cells. As for the experimental part: as §1, §3
The target of assay [5] is T8, huNav1.7α(R277Q) + β1-β2-β3 (human).
T8 construct: polyprotein as encoded; the entry already carries R277Q; also called huNav1.7(R277Q)-beta1-beta2-beta3
The assay can be described thus: binding FACS, CHO FlpIn cells. The method, then:
as §1, §3

For the next assay, the target named is T9, rhNav1.7α + β1-β2-β3 (rhesus monkey).
T9 construct: also called rhNav1.7-beta1-beta2-beta3; rhesus Nav1.7α
The assay can be described thus: binding FACS, CHO FlpIn cells. As for the experimental part:
as §1, §3

The target of assay [6] is T10, huNav1.7α(E281V) + β1-β2-β3 (human).
T10 construct: polyprotein as encoded; the entry already carries E281V; also called huNav1.7(E281V)-beta1-beta2-beta3
Nature of the assay: binding FACS, CHO FlpIn cells. The method, then: as §1, §3

The target in assay [7] is T11, huNav1.7α(F276V) + β1-β2-β3 (human, UniProt Q15858 1-1988; A5A6L6 19-218; O60939 30-215; Q2KI11 23-215).
T11 construct: polyprotein as encoded, P2A sites liberate the subunits; the entry already carries F276V; also called huNav1.7(F276V)-beta1-beta2-beta3
Nature of the assay: binding FACS, CHO FlpIn cells. As for the experimental part:
as §1, §3

B1: F0103265B04 (VHH)
VHH: EVQLVESGGGLVQPGGSLRLSCAAPSFIFSNNYMEWYRQAPGKQRDWVARITGRGNTNYLDSVKGRFTISRDDAKNTVYLEIDSLKPEDTAVYYCSALWYGGRAWGKGTLVTVSS
notes: entry includes the FLAG-HIS6 tag; also called F0103265B04 (parental)-FLAG-HIS6
Broadly, the IC50 is the concentration that gives 50% inhibition. The EC50 is the concentration at which the effect is half-maximal. For B1, the binding result in assay [1] is “no binding (tested: 1 µM)”; in the assay with huNav157chim6 + β1-β2-β3, “no binding (tested: 1 µM)”; with huNav157chim4 + β1-β2-β3, “no binding (tested: 1 µM)”; with huNav157chim7 + β1-β2-β3, “no binding (tested: 1 µM)”; with huNav157chim5 + β1-β2-β3 it was “no binding (tested: 1 µM)”; in assay [3], “no binding”. Further, the binding result (with rhNav1.7α + β1-β2-β3; in [7]) was “no binding” in each case. Further, the IC50 with huNav1.7α + β1-β2-β3 [2] was 18 nM. In addition, the EC50 with huNav1.7α + β1-β2-β3 [4] turned out to be 9.2 nM; in assay [5], 7.1 nM; in assay [6], 7.5 nM.

B2: F0103262B06 (VHH)
VHH: EVQLVESGGGLVQPGGSLRLSCAGSTRTFSTYAMGWFRQAPGREREFVAHINFSGSSTRYADSVKGRFTISRDNAKNMGYLQMNSLKPEDTAVYYCAARWVAGPPRYDYEYWGQGTLVTVSS
notes: entry includes the FLAG-HIS6 tag; also called F0103262B06 (parental)-FLAG-HIS6
As to B2, the binding result was “no binding (tested: 1 µM)” in assay [1]; “no binding (tested: 1 µM)” in the assay with huNav157chim6 + β1-β2-β3; “no binding (tested: 1 µM)” in the assay with huNav157chim4 + β1-β2-β3; “no binding (tested: 1 µM)” in the assay with huNav157chim7 + β1-β2-β3; “no binding (tested: 1 µM)” in the assay with huNav157chim5 + β1-β2-β3; “no binding” in assay [5]. For the same molecule, the binding result (in the assay with rhNav1.7α + β1-β2-β3; in assay [6]; in assay [7]) was “no binding” each time. In the assay with huNav1.7α + β1-β2-β3 [2], the IC50 was determined as 49 nM. In addition, the EC50 in assay [3] stood at 63 nM; with huNav1.7α + β1-β2-β3 [4] it was 47 nM.
